Results reported in publication PMC5579567.

Experiments:
[1] = molecular target: SgcE10, thioesterase (TE) of the 9-membered enediyne C-1027 biosynthetic machinery (Streptomyces globisporus); assay: SEC
[2] = molecular target: SgcE10, chymotrypsin digested (crystallised form) (Streptomyces globisporus); assay: crystal structure

For “SgcE10, thioesterase (TE) of the 9-membered enediyne C-1027 biosynthetic machinery (enzyme)”, the stoichiometry N [1] was 4.
“SgcE10, chymotrypsin digested (crystallised form) (enzyme)” gave a stoichiometry N [2] of 4.
